Reference: patent US6875851B1 (priority 1999, dated 2005)

Columns and labels:
PTP-A [1] = assay type: biochemical, P. gingivalis
PTP-A [2] = assay type: biochemical, P. gingivalis; remark: listed apart in the source
[3] = pH optimum and stability of PTP-A by amidolytic activity assay; assay type: physicochemical, P. gingivalis; conditions: 0.2 M HEPES
Method: Enzyme Activity Assays—Routinely, the tripeptidyl peptidase amidolytic activity was measured with H-Ala-Phe-Pro-pNA (1 mM) in 0.2 M HEPES (N-2-hydroxyethylpeperazine,N′-2-ethansulfonic acid), pH 7.5 at 37° C. The concentration of enzyme was 0.1 nM to 1 nM. The assay was performed in a total volume of 0.2 ml on microplates, and the initial turnover rate was recorded at 405 nm using a microplate reader (Spectramax Molecular Devices, Sunnyvale, Calif.). In inhibition studies, the enzyme was first preincubated with inhibitor for 15 min at 37° C., substrate added, and residual activity recorded after 5 minutes to 30 minutes. H-Gly-Pro-pNA, Z-Ala-Pro-pNA, Z-Gly-Pro-pNA and H-Pro-pNA (1 mM final concentration) were assayed in the same manner.
PTP-A activity was not affected by class specific synthetic inhibitors of cysteine or metalloproteinases (Table 2).

B1: human cystatin C: protein substrate, provided by Dr. Magnus Abrahamson (protein)
chain: SSPGKPPRLVGGPMDASVEEEGVRRALDFAVGEYNKASNDMYHSRALQVVRARKQIVAGVNYFLDVELGRTTCTKTQPNLDNCPFHDQPHLKRKAFCSFQIYAVPWQGTMTLSKSTCQDA
PTP-A [1]
  Cleavage of protein by PTP-A (in words): able to cleave a tripeptide

B2: α2-macroglobulin: Human plasma inhibitor (protein)
chain: SVSGKPQYMVLVPSLLHTETTEKGCVLLSYLNETVTVSASLESVRGNRSLFTDLEAENDVLHCVAFAVPKSSSNEEVMFLTVQVKGPTQEFKKRTTVMVKNEDSLVFVQTDKSIYKPGQTVKFRVVSMDENFHPLNELIPLVYIQDPKGNRIAQWQSFQLEGGLKQFSFPLSSEPFQGSYKVVVQKKSGGRTEHPFTVEEFVLPKFEVQVTVPKIITILEEEMNVSVCGLYTYGKPVPGHVTVSICRKYSDASDCHGEDSQAFCEKFSGQLNSHGCFYQQVKTKVFQLKRKEYEMKLHTEAQIQEEGTVVELTGRQSSEITRTITKLSFVKVDSHFRQGIPFFGQVRLVDGKGVPIPNKVIFIRGNEANYYSNATTDEHGLVQFSINTTNVMGTSLTVRVNYKDRSPCYGYQWVSEEHEEAHHTAYLVFSPSKSFVHLEPMSHELPCGHTQTVQAHYILNGGTLLGLKKLSFYYLIMAKGGIVRTGTHGLLVKQEDMKGHFSISIPVKSDIAPVARLLIYAVLPTGDVIGDSAKYDVENCLANKVDLSFSPSQSLPASHAHLRVTAAPQSVCALRAVDQSVLLMKPDAELSASSVYNLLPEKDLTGFPGPLNDQDNEDCINRHNVYINGITYTPVSSTNEKDMYSFLEDMGLKAFTNSKIRKPKMCPQLQQYEMHGPEGLRVGFYESDVMGRGHARLVHVEEPHTETVRKYFPETWIWDLVVVNSAGVAEVGVTVPDTITEWKAGAFCLSEDAGLGISSTASLRAFQPFFVELTMPYSVIRGEAFTLKATVLNYLPKCIRVSVQLEASPAFLAVPVEKEQAPHCICANGRQTVSWAVTPKSLGNVNFTVSAEALESQELCGTEVPSVPEHGRKDTVIKPLLVEPEGLEKETTFNSLLCPSGGEVSEELSLKLPPNVVEESARASVSVLGDILGSAMQNTQNLLQMPYGCGEQNMVLFAPNIYVLDYLNETQQLTPEIKSKAIGYLNTGYQRQLNYKHYDGSYSTFGERYGRNQGNTWLTAFVLKTFAQARAYIFIDEAHITQALIWLSQRQKDNGCFRSSGSLLNNAIKGGVEDEVTLSAYITIALLEIPLTVTHPVVRNALFCLESAWKTAQEGDHGSHVYTKALLAYAFALAGNQDKRKEVLKSLNEEAVKKDNSVHWERPQKPKAPVGHFYEPQAPSAEVEMTSYVLLAYLTAQPAPTSEDLTSATNIVKWITKQQNAQGGFSSTQDTVVALHALSKYGAATFTRTGKAAQVTIQSSGTFSSKFQVDNNNRLLLQQVSLPELPGEYSMKVTGEGCVYLQTSLKYNILPEKEEFPFALGVQTLPQTCDEPKAHTSFQISLSVSYTGSRSASNMAIVDVKMVSGFIPLKPTVKMLERSNHVSRTEVSSNHVLIYLDKVSNQTLSLFFTVLQDVPVRDLKPAIVKVYDYYETDEFAIAEYNAPCSKDLGNA
PTP-A [1]
  Cleavage of protein by PTP-A (in words): nor were they cleaved by PTP-A
PTP-A [2]
  Effect on PTP-A amidolytic activity (in words): did not affect the enzyme activity

B3: PTP-A: prolyl-tripeptidyl peptidase A (SEQ ID NO:30) from P. gingivalis (protein, listed as Porphyromonas gingivalis)
chain: MKKTIFQQLFLSVCALTVALPCSAQSPETSGKEFTLEQLMPGGKEFYNFYPEYVVGLQWMGDNYVFIEGDDLVFNKANGKSAQTTRFSAADLNALMPEGCKFQTTDAFPSFRTLDAGRGLVVLFTQGGLVGFDMLARKVTYLFDTNEETASLDFSPVGDRVAYVRNHNLYIARGGKLGEGMSRAIAVTIDGTETLVYGQAVHQREFGIEKGTFWSPKGSCLAFYRMDQSMVKPTPIVDYHPLEAESKPLYYPMAGTPSHHVTVGIYHLATGKTVYLQTGEPKEKFLTNLSWSPDENILYVAEVNRAQNECKVNAYDAETGRFVRTLFVETDKHYVEPLHPLTFLPGSNNQFIWQSRRDGWNHLYLYDTTGRLIRQVTKGEWEVTNFAGFDPKGTRLYFESTEASPLERHFYCIDIKGGKTKDLTPESGMHRTQLSPDGSAIIDIFQSPTVPRKVTVTNIGKGSHTLLEAKNPDTGYAMPEIRTGTIMAADGQTPLYYKLTMPLHFDPAKKYPVIVYVYGGPHAQLVTKTWRSSVGGWDIYMAQKGYAVFTVDSRGSANRGAAFEQVIHRRLGQTEMADQMCGVDFLKSQSWVDADRIGVHGWSYGGFMTTNLMLTHGDVFKVGVAGGPVIDWNRYEIMYGERYFDAPQENPEGYDAANLLKRAGDLKGRLMLIHGAIDPVVVWQHSLLFLDACVKARTYPDYYVYPSHEHNVMGPDRVHLYETITRYFTDHL
[3]; pH 7.6, 25° C.
  Stability (time stable): at least 12 hours
[3]; pH 7.6, 37° C.
  Stability (time stable): at least 12 hours

B4: α1-antichymotrypsin: Human plasma inhibitor (protein)
chain: HPNSPLDEENLTQENQDRGTHVDLGLASANVDFAFSLYKQLVLKAPDKNVIFSPLSISTALAFLSLGAHNTTLTEILKGLKFNLTETSEAEIHQSFQHLLRTLNQSSDELQLSMGNAMFVKEQLSLLDRFTEDAKRLYGSEAFATDFQDSAAAKKLINDYVKNGTRGKITDLIKDLDSQTMMVLVNYIFFKAKWEMPFDPQDTHQSRFYLSKKKWVMVPMMSLHHLTIPYFRDEELSCTVVELKYTGNASALFILPDQDKMEEVEAMLLPETLKRWRDSLEFREIGELYLPKFSISRDYNLNDILLQLGIEEAFTSKADLSGITGARNLAVSQVVHKAVLDVFEEGTEASAATAVKITLLSALVETRTIVRFNRPFLMIIVPTDTQNIFFMSKVTNPKQA
PTP-A [1]
  Cleavage of protein by PTP-A (in words): nor were they cleaved by PTP-A
PTP-A [2]
  Effect on PTP-A amidolytic activity (in words): did not affect the enzyme activity
